According to the supplement of paper PMC9112550, “Optimization of the antimicrobial peptide Bac7 by deep mutational scanning” (BMC Biology, 2022):

System: Escherichia coli TOP10
Assay: shrunken log2 fold change of peptide-encoding DNA abundance (4.5 h post-induction vs induction); higher = less antimicrobial activity (less host growth inhibition)
Details: time post-induction: 4.5 h; library: site-saturation at positions 5, 18, 19, 20
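Note: peptides expressed intracellularly from a pBAD plasmid library in pooled LB shake-flask culture, induced with 0.3% L-arabinose, DNA abundance read by NGS, three biological replicates, DESeq2 with apeglm shrinkage.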

| Sequence | shrunken log2 fold change |
| --- | --- |
| RRIRIRPPRLPRPRPRPFTAPRP | -0.138 |
| RRIRIRPPRLPRPRPRPFVFPRP | -0.356 |
| RRIRIRPPRLPRPRPRPFVIPRP | 0.0556 |
| RRIRIRPPRLPRPRPRPGALPRP | -0.111 |
| RRIRIRPPRLPRPRPRPGARPRP | 0.251 |
| RRIRIRPPRLPRPRPRPGCHPRP | -0.602 |
| RRIRIRPPRLPRPRPRPGEAPRP | -0.0281 |
| RRIRIRPPRLPRPRPRPGEMPRP | -0.00568 |
| RRIRIRPPRLPRPRPRPGFSPRP | -0.0749 |
| RRIRIRPPRLPRPRPRPGGDPRP | 0.0406 |
| RRIRIRPPRLPRPRPRPGGMPRP | -0.0648 |
| RRIRIRPPRLPRPRPRPGGWPRP | 0.56 |
| RRIRIRPPRLPRPRPRPGHQPRP | -0.00431 |
| RRIRIRPPRLPRPRPRPGHRPRP | 0.0543 |
| RRIRIRPPRLPRPRPRPGKLPRP | -0.0215 |
| RRIRIRPPRLPRPRPRPGKMPRP | -0.329 |
| RRIRIRPPRLPRPRPRPGMFPRP | -0.284 |
| RRIRIRPPRLPRPRPRPGMPPRP | -0.0857 |
| RRIRIRPPRLPRPRPRPGMRPRP | 0.43 |
| RRIRIRPPRLPRPRPRPGMTPRP | -0.164 |
| RRIRIRPPRLPRPRPRPGMVPRP | 0.0533 |
| RRIRIRPPRLPRPRPRPGNNPRP | -0.00577 |
| RRIRIRPPRLPRPRPRPGQVPRP | -0.0393 |
| RRIRIRPPRLPRPRPRPGRHPRP | 0.0231 |
| RRIRIRPPRLPRPRPRPGRTPRP | 0.0928 |

| Sequence | shrunken log2 fold change |
| --- | --- |
| RRIRIRPPRLPRPRPRPGTCPRP | -0.188 |
| RRIRIRPPRLPRPRPRPGTRPRP | 0.0641 |
| RRIRIRPPRLPRPRPRPGYTPRP | -0.206 |
| RRIRIRPPRLPRPRPRPGYYPRP | -0.708 |
| RRIRIRPPRLPRPRPRPHCDPRP | -0.0356 |
| RRIRIRPPRLPRPRPRPHCGPRP | -0.0759 |
| RRIRIRPPRLPRPRPRPHCKPRP | -0.147 |
| RRIRIRPPRLPRPRPRPHCMPRP | -0.697 |
| RRIRIRPPRLPRPRPRPHDHPRP | -0.174 |
| RRIRIRPPRLPRPRPRPHDMPRP | -0.226 |
| RRIRIRPPRLPRPRPRPHESPRP | 0.0539 |
| RRIRIRPPRLPRPRPRPHGDPRP | -0.125 |
| RRIRIRPPRLPRPRPRPHGWPRP | 0.0102 |
| RRIRIRPPRLPRPRPRPHHAPRP | 0.0597 |
| RRIRIRPPRLPRPRPRPHHVPRP | -0.091 |
| RRIRIRPPRLPRPRPRPHIFPRP | -0.311 |
| RRIRIRPPRLPRPRPRPHKAPRP | -0.0133 |
| RRIRIRPPRLPRPRPRPHLLPRP | 0.0103 |
| RRIRIRPPRLPRPRPRPHLYPRP | -0.241 |
| RRIRIRPPRLPRPRPRPHMFPRP | -1 |
| RRIRIRPPRLPRPRPRPHQLPRP | -0.52 |
| RRIRIRPPRLPRPRPRPHRLPRP | -0.122 |
| RRIRIRPPRLPRPRPRPHRQPRP | -0.152 |
| RRIRIRPPRLPRPRPRPHSGPRP | -0.00591 |
| RRIRIRPPRLPRPRPRPHWDPRP | -0.248 |

| Sequence | shrunken log2 fold change |
| --- | --- |
| RRIRIRPPRLPRPRPRPHWIPRP | -0.157 |
| RRIRIRPPRLPRPRPRPHWKPRP | -0.0691 |
| RRIRIRPPRLPRPRPRPHYGPRP | -0.223 |
| RRIRIRPPRLPRPRPRPHYHPRP | -1.47 |
| RRIRIRPPRLPRPRPRPIALPRP | -0.149 |
| RRIRIRPPRLPRPRPRPICIPRP | -0.127 |
| RRIRIRPPRLPRPRPRPICWPRP | 0.307 |
| RRIRIRPPRLPRPRPRPIDHPRP | -0.0137 |
| RRIRIRPPRLPRPRPRPIEPPRP | 0.0377 |
| RRIRIRPPRLPRPRPRPIFTPRP | 0.0285 |
| RRIRIRPPRLPRPRPRPIFVPRP | -0.28 |
| RRIRIRPPRLPRPRPRPIHFPRP | -0.0704 |
| RRIRIRPPRLPRPRPRPIHSPRP | -0.302 |
| RRIRIRPPRLPRPRPRPIKNPRP | -0.546 |
| RRIRIRPPRLPRPRPRPILEPRP | 0.0083 |
| RRIRIRPPRLPRPRPRPILKPRP | 0.134 |
| RRIRIRPPRLPRPRPRPILLPRP | -0.266 |
| RRIRIRPPRLPRPRPRPINAPRP | -0.431 |
| RRIRIRPPRLPRPRPRPINCPRP | -0.0883 |
| RRIRIRPPRLPRPRPRPINWPRP | -0.402 |
| RRIRIRPPRLPRPRPRPIPFPRP | -1.35 |
| RRIRIRPPRLPRPRPRPIQNPRP | -0.225 |
| RRIRIRPPRLPRPRPRPISHPRP | -0.0541 |
| RRIRIRPPRLPRPRPRPISNPRP | -0.000216 |
| RRIRIRPPRLPRPRPRPITQPRP | -0.186 |
